{"source": "paper PMC7840889", "about": "“Architecture of the Tuberous Sclerosis Protein Complex” (Journal of Molecular Biology, 2021)", "binders": {"B1": {"name": "TSC1(Δ400-600) (natural protein, human, UniProt Q92574-1 1-1164, looked up)", "chain": "MAQQANVGELLAMLDSPMLGVRDDVTAVFKENLNSDRGPMLVNTLVDYYLETSSQPALHILTTLQEPHDKHLLDRINEYVGKAATRLSILSLLGHVIRLQPSWKHKLSQAPLLPSLLKCLKMDTDVVVLTTGVLVLITMLPMIPQSGKQHLLDFFDIFGRLSSWCLKKPGHVAEVYLVHLHASVYALFHRLYGMYPCNFVSFLRSHYSMKENLETFEEVVKPMMEHVRIHPELVTGSKDHELDPRRWKRLETHDVVIECAKISLDPTEASYEDGYSVSHQISARFPHRSADVTTSPYADTQNSYGCATSTPYSTSRLMLLNMPGQLPQTLSSPSTRLITEPPQATLWSPSMVCGMTTPPTSPGNVPPDLSHPYSKVFGTTAGGKGTPLGTPATSPPPAPPPPYDHLFEVALPKTAHHFVIRKTEELLKKAKGNTEEDGVPSTSPMEVLDRLIQQGADAHSKELNKLPLPSKSVDWTHFGGSPPSDEIRTLRDQLLLLHNQLLYERFKRQQHALRNRRLLRKVIKAAALEEHNAAMKDQLKLQEKDIQMWKVSLQKEQARYNQLQEQRDTMVTKLHSQIRQLQHDREEFYNQSQELQTKLEDCRNMIAELRIELKKANNKVCHTELLLSQVSQKLSNSESVQQQMEFLNRQLLVLGEVNELYLEQLQNKHSDTTKEVEMMKAAYRKELEKNRSHVLQQTQRLDTSQKRILELESHLAKKDHLLLEQKKYLEDVKLQARGQLQAAESRYEAQKRITQVFELEILDLYGRLEKDGLLKKLEEEKAEAAEAAEERLDCCNDGCSDSMVGHNEEASGHNGETKTPRPSSARGSSGSRGGGGSSSSSSELSTPEKPPHQRAGPFSSRWETTMGEASASIPTTVGSLPSSKSFLGMKARELFRNKSESQCDEDGMTSSLSESLKTELGKDLGVEAKIPLNLDGPHPSPPTPDSVGQLHIMDYNETHHEHS", "notes": "human TSC1 (1164 amino acids, Q92574-1) with an internal deletion of residues 400-600; also called TSC1 internal deletion construct; TSC1 of TSCC1Δ"}, "B2": {"name": "FLAG-tagged full-length human TSC2 (natural protein)", "chain": "not shown", "notes": "human TSC2, full length, 1807 amino acids, UniProtKB/Swiss-Prot P49815-1; Could not be purified in the absence of TSC1; two copies stand in the TSCC; also called tuberin"}, "B3": {"name": "FLAG-tagged full-length human TSC1 (natural protein, UniProt Q92574-1 1-1164, looked up)", "chain": "MAQQANVGELLAMLDSPMLGVRDDVTAVFKENLNSDRGPMLVNTLVDYYLETSSQPALHILTTLQEPHDKHLLDRINEYVGKAATRLSILSLLGHVIRLQPSWKHKLSQAPLLPSLLKCLKMDTDVVVLTTGVLVLITMLPMIPQSGKQHLLDFFDIFGRLSSWCLKKPGHVAEVYLVHLHASVYALFHRLYGMYPCNFVSFLRSHYSMKENLETFEEVVKPMMEHVRIHPELVTGSKDHELDPRRWKRLETHDVVIECAKISLDPTEASYEDGYSVSHQISARFPHRSADVTTSPYADTQNSYGCATSTPYSTSRLMLLNMPGQLPQTLSSPSTRLITEPPQATLWSPSMVCGMTTPPTSPGNVPPDLSHPYSKVFGTTAGGKGTPLGTPATSPPPAPLCHSDDYVHISLPQATVTPPRKEERMDSARPCLHRQHHLLNDRGSEEPPGSKGSVTLSDLPGFLGDLASEEDSIEKDKEEAAISRELSEITTAEAEPVVPRGGFDSPFYRDSLPGSQRKTHSAASSSQGASVNPEPLHSSLDKLGPDTPKQAFTPIDLPCGSADESPAGDRECQTSLETSIFTPSPCKIPPPTRVGFGSGQPPPYDHLFEVALPKTAHHFVIRKTEELLKKAKGNTEEDGVPSTSPMEVLDRLIQQGADAHSKELNKLPLPSKSVDWTHFGGSPPSDEIRTLRDQLLLLHNQLLYERFKRQQHALRNRRLLRKVIKAAALEEHNAAMKDQLKLQEKDIQMWKVSLQKEQARYNQLQEQRDTMVTKLHSQIRQLQHDREEFYNQSQELQTKLEDCRNMIAELRIELKKANNKVCHTELLLSQVSQKLSNSESVQQQMEFLNRQLLVLGEVNELYLEQLQNKHSDTTKEVEMMKAAYRKELEKNRSHVLQQTQRLDTSQKRILELESHLAKKDHLLLEQKKYLEDVKLQARGQLQAAESRYEAQKRITQVFELEILDLYGRLEKDGLLKKLEEEKAEAAEAAEERLDCCNDGCSDSMVGHNEEASGHNGETKTPRPSSARGSSGSRGGGGSSSSSSELSTPEKPPHQRAGPFSSRWETTMGEASASIPTTVGSLPSSKSFLGMKARELFRNKSESQCDEDGMTSSLSESLKTELGKDLGVEAKIPLNLDGPHPSPPTPDSVGQLHIMDYNETHHEHS", "notes": "human TSC1, full length, 1164 amino acids, UniProtKB/Swiss-Prot Q92574-1; Two copies stand in the TSCC; also called hamartin"}}, "key": {"[1]": {"target": "B2", "assay": "SEC-MALS; TSCC1Δ (TSC1(Δ400-600)-TSC2-TBC1D7) on Superose 6 10/300; 25 mM K-HEPES pH 7.6, 250 mM KCl, 0.5 mM EDTA, 1 mM TCEP; room temperature", "conditions": "both partners purified"}, "[2]": {"target": "the molecule itself", "assay": "SEC-MALS; TSCC1Δ (TSC1(Δ400-600)-TSC2-TBC1D7) on Superose 6 10/300; 25 mM K-HEPES pH 7.6, 250 mM KCl, 0.5 mM EDTA, 1 mM TCEP; room temperature"}, "TSC1(Δ400-600)": {"target": "B1", "assay": "SEC-MALS; TSCC1Δ (TSC1(Δ400-600)-TSC2-TBC1D7) on Superose 6 10/300; 25 mM K-HEPES pH 7.6, 250 mM KCl, 0.5 mM EDTA, 1 mM TCEP; room temperature", "conditions": "both partners purified"}, "[3]": {"target": "B3", "assay": "cryo-EM structure; single-particle cryo-EM of purified TSCCFL at 0.1-0.2 mg/mL on graphene oxide; 25 mM K-HEPES pH 7.6, 175 mM KCl or 150 mM LiCl, 1 mM TCEP; body 4.6 Å, pincer 8.1 Å, tail 8.2 Å", "conditions": "both partners purified"}, "[4]": {"target": "B2", "assay": "cryo-EM structure; single-particle cryo-EM of purified TSCCFL at 0.1-0.2 mg/mL on graphene oxide; 25 mM K-HEPES pH 7.6, 175 mM KCl or 150 mM LiCl, 1 mM TCEP; body 4.6 Å, pincer 8.1 Å, tail 8.2 Å", "conditions": "both partners purified"}}}
{"binder": "B1", "values": [{"measurement": "binding result", "setting": "[1]", "value": "binds"}, {"measurement": "stoichiometry N", "setting": "[2]", "value": "~2"}]}
{"binder": "FLAG-tagged human TBC1D7 (natural protein, UniProt Q9P0N9 1-293, looked up, human TBC1D7, 293 amino acids, GenBank AAH07054; part of the FL TSC1-TSC2-TBC1D7 (TSCCFL) plasmids; One copy stands in the TSCC) MTEDSQRNFRSVYYEKVGFRGVEEKKSLEILLKDDRLDTEKLCTFSQRFPLPSMYRALVWKVLLGILPPHHESHAKVMMYRKEQYLDVLHALKVVRFVSDATPQAEVYLRMYQLESGKLPRSPSFPLEPDDEVFLAIAKAMEEMVEDSVDCYWITRRFVNQLNTKYRDSLPQLPKAFEQYLNLEDGRLLTHLRMCSAAPKLPYDLWFKRCFAGCLPESSLQRVWDKVVSGSCKILVFVAVEILLTFKIKVMALNSAEKITKFLENIPQDSSDAIVSKAIDLWHKHCGTPVHSS", "values": [{"measurement": "binding result", "setting": "TSC1(Δ400-600)", "value": "binds"}, {"measurement": "binding result", "setting": "[3]", "value": "binds"}]}
{"binder": "B2", "values": [{"measurement": "stoichiometry N", "setting": "[2]", "value": "~2"}]}
{"binder": "B3", "values": [{"measurement": "binding result", "setting": "[4]", "value": "binds"}]}
